In patent US20050176123A1, “Protease inhibitor” (Morinaga Milk Industry Co., Ltd., priority 2002, published 2005):

How the values were obtained:
Test in all cases: cysteine protease inhibitory activity (Z-Phe-Arg-MCA fluorescence, method of Barrett et al.)
Assay type in all cases: biochemical
cathepsin B = target: T1, cathepsin B (Homo sapiens, UniProt P07858)
T1 construct: purchased Wako Pure Chemical Industries, Ltd
Procedure: (§1) Inhibitory activities against cysteine proteases including papain, cathepsin B, cathepsin L and cathepsin S (these proteases are available from Wako Pure Chemical Industries, Ltd.) were determined using commercially available bovine lactoferrin (manufactured by Morinaga Milk Industry Co., Ltd.) as a test sample. The inhibitory activity was measured with reference to the method by Barrett et al. (“Methods in Enzymology,” Vol. 80, p 535-561, 1981) as described below. Namely, Z-Phe-Arg-MCA (final concentration of […]: manufactured by Peptide Institute, Inc.) was added as a substrate to 0.1 M acetic acid buffer solution (pH 5.5) in which sample was dissolved at each concentration. Then, cysteine protease (a protease selected from papain, cathepsin B, cathepsin L and cathepsin S in the present test: manufactured by Wako Pure Chemical Industries, Ltd.) solution (final concentration: 15 units/ml) was added, the whole solution was mixed and the reaction was carried out at 37° C. for 10 minutes. Subsequently, fluorescence intensity (excitation wavelength: 370 nm, emission wavelength: 460 nm) of AMC (7-Amino-4-Methyl-Coumarin) released from the digested substrate was measured with a fluorescence spectrometer (manufactured by Hitachi, Ltd.).

cathepsin L = target: T2, cathepsin L (Homo sapiens, UniProt P07711)
T2 construct: purchased Wako Pure Chemical Industries, Ltd
T2 sequence (P07711 114-333, species assumed): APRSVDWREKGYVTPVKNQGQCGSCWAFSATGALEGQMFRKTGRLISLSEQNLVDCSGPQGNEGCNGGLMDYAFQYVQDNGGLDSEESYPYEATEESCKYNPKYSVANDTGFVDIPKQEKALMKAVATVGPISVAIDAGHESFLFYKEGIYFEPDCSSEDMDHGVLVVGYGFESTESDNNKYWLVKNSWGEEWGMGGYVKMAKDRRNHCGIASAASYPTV
Procedure: as §1

papain = target: T3, papain (Carica papaya, UniProt P00784); conditions: pH 5.5, 37° C., 10 minutes
T3 construct: purchased Wako Pure Chemical Industries, Ltd
T3 sequence (P00784 134-345): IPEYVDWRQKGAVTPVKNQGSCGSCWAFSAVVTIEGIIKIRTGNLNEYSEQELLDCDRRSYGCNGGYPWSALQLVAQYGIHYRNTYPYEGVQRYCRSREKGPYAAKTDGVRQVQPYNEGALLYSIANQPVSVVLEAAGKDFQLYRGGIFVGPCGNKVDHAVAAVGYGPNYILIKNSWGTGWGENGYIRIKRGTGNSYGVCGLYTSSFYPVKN
Procedure: as §1

[1] = inhibitor 10^−3 M, pH 5.5, 37° C., 10 minutes

Row | Substance | cysteine protease-inhibitory activity compared with human lactoferrin peptide Y679-K695 (cathepsin B; similar test to Test Example 5) | cysteine protease-inhibitory activity compared with human lactoferrin peptide Y679-K695 (cathepsin L; similar test to Test Example 5) | inhibition of cysteine protease activity (cathepsin B; [1]) | inhibition of cysteine protease activity (cathepsin L; [1]) | inhibition rate at each concentration (%) (cathepsin L; inhibitor 10^−4M, pH 5.5, 37° C., 10 minutes) | inhibition of cysteine protease activity (papain; inhibitor 10^−3 M) | inhibition rate at each concentration (%) (papain; inhibitor 10^−4M)
1 | bovine lactoferrin peptide Y676-K692: peptide having amino acid numbers 676-692 of SEQ ID No. 2 (bovine lactoferrin), chemically synthesized (YEEYLGTEYVTAIANLK; sig_peptide (1)...(19) Lactoferrin; listed as Bos taurus) | almost equal to the human lactoferrin peptide Y679-K695 | almost equal to the human lactoferrin peptide Y679-K695 |  |  |  |  | 
2 | human lactoferrin peptide Y679-K695: peptide having amino acid numbers 679-695 of SEQ ID No. 1 (human lactoferrin), chemically synthesized (YEKYLGPQYVAGITNLK; sig_peptide (1)...(19) Lactoferrin; listed as Homo Sapiens) |  |  | ~60% | almost completely inhibited | more than 50% | almost completely inhibited | more than 50%
